The source of these data is paper PMC10574248.

The subject of the data set is RBP7910 (Trypanosoma brucei). The data set can be described thus: MST. The note with it: RBB50: 20 mM HEPES pH 7.6, 150 mM KCl, 5 mM MgCl2, 100 ug/mL BSA, 10% glycerol, 50 nM oligo, room temperature 30-60 min, errors are 68% confidence.
As a reminder, the Kd is the concentration at which binding is half-saturated. A higher Kd goes with a looser complex. Take “GGUGGGUUAUAUUUAUUUAUUUAUUUAUCAACUGGG / CCCAGUUGAUAAAUAAAUAAAUAAAUAUAACCCACC [r(AUUU)4 ds]”: the Kd is 1880 nM.
On to “GGUGGGUUAUCGCGCGCGCGCGAUCAACUGGG / CCCAGUUGAUCGCGCGCGCGCGAUAACCCACC [r(GC)6 ds]”, for which the dissociation constant Kd was 3220 nM.
For the sequence “GGUGGGUUAUUAUAUAUAUAUAAUCAACUGGG [r(UA)6 ss]”, the Kd was found to be 880 nM.
The sequence “GGUGGGUUAUUUUUUUUUUUUUAUCAACUGGG / CCCAGUUGAUAAAAAAAAAAAAAUAACCCACC [r(UUUU)3 ds]” had a Kd of 1710 nM.
The sequence “GGTGGGTTATCGCGCGCGCGCGATCAACTGGG [d(GC)6 ss]” returned a dissociation constant (Kd) of 22 nM.
For “GGUGGGUUAUAUUCAUUCAUUCAUCAACUGGG [r(AUUC)3 ss]”, the Kd was found to be 272 nM.
In turn, “GGUGGGUUAUAUUCAUUCAUUCAUCAACUGGG / CCCAGUUGAUGAAUGAAUGAAUAUAACCCACC [r(AUUC)3 ds]” had a Kd of 1230 nM.
On to “GGUGGGUUAUAUUUAUUUAUUUAUUUAUCAACUGGG [r(AUUU)4 ss]”, for which the Kd worked out at 180 nM.
“GGUGGGUUAUUUUUUUUUUUUUAUCAACUGGG [r(UUUU)3 ss]” registered an equilibrium dissociation constant (Kd) of 147 nM.
The sequence “GGTGGGTTATCGCGCGCGCGCGATCAACTGGG (double strand) [d(GC)6 ds]” showed a Kd of 444 nM.
“GGUGGGUUAUUAUAUAUAUAUAAUCAACUGGG / CCCAGUUGAUUAUAUAUAUAUAAUAACCCACC [r(UA)6 ds]”: the Kd was 1340 nM.
The value for “GGUGGGUUAUCGCGCGCGCGCGAUCAACUGGG [r(GC)6 ss]” was 2030 nM.
